Measurements from PMC4879557, “HPTLC-aptastaining – Innovative protein detection system for high-performance thin-layer chromatography”.

B1: 5'-ATTO 550-LysApt5 (ssDNA)
DNA: CATCCGTCACACCTGCTCCCTGCTAGAATTTTTCATGATCTTGCTGTATTTCTATTATGGTGTTCGGTCCCGTATC
B2: 5'-ATTO 550-LysApt4 (ssDNA)
DNA: CATCCGTCACACCTGCTCTTGTTATTTTTTGTTGATGTAGGTTTGATGATGTATTTCCGGTGTTCGGTCCCGTATC

What was measured:
lysozyme [1] = target: T1, lysozyme (hen (egg white), UniProt P00698 19-147); assay: HPTLC-aptastaining; RP-18W and silica gel plates; White wine mimicking buffer: 1.5 mM KCl, 14.5 mM K acetate, 3.5 mM Mg acetate, 1.5 mM Ca acetate, 1 mM NaH2PO4, 4 mM KH2PO4, 11.5% (v/v) ethanol, pH 3.1; room temperature; plates blocked with 0.6% Tween 20; aptamer 5 nM (silica gel, cellulose) or 0.5 nM (RP); settings: protein: native; label: 5' ATTO 550
beta-lactoglobulin = target: T2, beta-lactoglobulin (UniProt P02754 17-178); assay: as above; settings: protein: native; chain copies: 2; label: 5' ATTO 550
T2 sequence: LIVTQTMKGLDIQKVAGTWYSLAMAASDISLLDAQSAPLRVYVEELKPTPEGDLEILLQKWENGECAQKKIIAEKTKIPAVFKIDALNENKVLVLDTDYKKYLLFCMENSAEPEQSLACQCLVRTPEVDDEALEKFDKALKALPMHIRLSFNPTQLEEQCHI

lysozyme [2] = target: T1, lysozyme; assay: HPTLC-aptastaining; no obvious differences to LysApt5; White wine mimicking buffer: 1.5 mM KCl, 14.5 mM K acetate, 3.5 mM Mg acetate, 1.5 mM Ca acetate, 1 mM NaH2PO4, 4 mM KH2PO4, 11.5% (v/v) ethanol, pH 3.1; room temperature; plates blocked with 0.6% Tween 20; aptamer 5 nM (silica gel, cellulose) or 0.5 nM (RP); settings: protein: native; label: 5' ATTO 550

T1 sequence (P00698 19-147): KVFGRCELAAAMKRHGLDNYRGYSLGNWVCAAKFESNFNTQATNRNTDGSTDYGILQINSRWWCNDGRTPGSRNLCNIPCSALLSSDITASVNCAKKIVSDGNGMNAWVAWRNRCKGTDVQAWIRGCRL

Binder	binding result (lysozyme [1])	binding result (beta-lactoglobulin)	binding result (lysozyme [2])
B1	binds	no binding	
B2			binds
